This is an account of results in publication PMC9482650, “Quantitative fragmentomics allow affinity mapping of interactomes” (Nature Communications, 2022).

Targets include MAST2, Q6P0Q8; PARD3B_1, Q8TEW8; SCRIB_3, Q14160; SYNJ2BP, P57105; MAGI2_2, Q86UL8.
What all share (assay): holdup assay
Common to all, as to design: key: below the threshold = too weak to quantify, mostly under pKd 3.1 to 4

For the next assay, the target named is AHNAK1, Q09666. The following applies: plain residues with an end cap or a label only.
AHNAK1, Q09666, sequence (Q09666 2-98): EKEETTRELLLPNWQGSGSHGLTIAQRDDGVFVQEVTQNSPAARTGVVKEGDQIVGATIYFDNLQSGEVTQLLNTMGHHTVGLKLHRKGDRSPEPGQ
Another assay has as its target APBA1_2, Q02410. The following applies: plain residues with an end cap or a label only.
A further assay deals with PDZD7_3, Q9H5P4. The following applies: modified: phosphorylated residue at S732 (position -3 from the C-terminal residue); phosphorylated residue at T733 (position -2 from the C-terminal residue); phosphorylated residue at T734 (position -1 from the C-terminal residue).
PDZD7_3, Q9H5P4, sequence (Q9H5P4 858-953): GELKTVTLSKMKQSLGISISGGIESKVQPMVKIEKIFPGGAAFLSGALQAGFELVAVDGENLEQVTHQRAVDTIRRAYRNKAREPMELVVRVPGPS
In another assay the target is HTRA1, Q92743. As to conditions: modified: phosphorylated residue at T733 (position -2 from the C-terminal residue); phosphorylated residue at T734 (position -1 from the C-terminal residue).
HTRA1, Q92743, sequence (Q92743 365-480): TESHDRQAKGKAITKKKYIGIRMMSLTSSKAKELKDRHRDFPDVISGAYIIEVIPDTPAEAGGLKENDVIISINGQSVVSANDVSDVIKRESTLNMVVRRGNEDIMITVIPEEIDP
The next assay addresses SNTG2, Q9NY99. As to conditions: modified: phosphorylated residue at S732 (position -3 from the C-terminal residue); phosphorylated residue at T734 (position -1 from the C-terminal residue).
A further assay addresses ARHGEF12, Q9NZN5-2. As to conditions: modified: phosphorylated residue at S732 (position -3 from the C-terminal residue); phosphorylated residue at T734 (position -1 from the C-terminal residue).
A further assay has as its target SCRIB_1, Q14160. As to conditions: modified: O-phospho-L-serine at S732 (position -3 from the C-terminal residue); O-phospho-L-threonine at T734 (position -1 from the C-terminal residue).
A further assay has as its target SNX27, Q96L92. As to conditions: modified: phosphorylated residue at S732 (position -3 from the C-terminal residue); phosphorylated residue at T734 (position -1 from the C-terminal residue).
The target of a further assay is MAGI3_2, Q5TCQ9. As to conditions: modified: O-phospho-L-serine at S732 (position -3 from the C-terminal residue); O-phospho-L-threonine at T734 (position -1 from the C-terminal residue).
MAGI3_2, Q5TCQ9, sequence (Q5TCQ9 398-503): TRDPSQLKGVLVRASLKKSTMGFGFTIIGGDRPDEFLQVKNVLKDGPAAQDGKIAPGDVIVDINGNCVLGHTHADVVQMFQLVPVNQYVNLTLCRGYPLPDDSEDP
Another assay deals with SNTA1, Q13424. The following applies: modified: O-phospho-L-serine at S732 (position -3 from the C-terminal residue); O-phospho-L-threonine at T734 (position -1 from the C-terminal residue).
SNTA1, Q13424, sequence (Q13424 84-171): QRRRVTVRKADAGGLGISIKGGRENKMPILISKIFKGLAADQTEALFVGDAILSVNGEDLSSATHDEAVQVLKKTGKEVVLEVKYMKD
A further assay addresses PDZRN4_1, Q6ZMN7. The following applies: modified: O-phospho-L-serine at S732 (position -3 from the C-terminal residue); O-phospho-L-threonine at T734 (position -1 from the C-terminal residue).
The target of the next assay is PTPN3, P26045. As to conditions: modified: O-phospho-L-serine at S732 (position -3 from the C-terminal residue); O-phospho-L-threonine at T734 (position -1 from the C-terminal residue).
PTPN3, P26045, sequence (P26045 505-587): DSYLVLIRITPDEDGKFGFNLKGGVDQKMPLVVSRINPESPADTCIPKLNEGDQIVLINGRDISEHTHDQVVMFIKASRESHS
The target in another assay is SNTB1, Q13884. The following applies: modified: O-phospho-L-serine at S732 (position -3 from the C-terminal residue); phosphorylated residue at T734 (position -1 from the C-terminal residue).
SNTB1, Q13884, sequence (Q13884 107-196): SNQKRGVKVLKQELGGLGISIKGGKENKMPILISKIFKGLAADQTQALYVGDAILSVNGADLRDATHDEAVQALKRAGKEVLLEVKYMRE
In another assay the target is APBA2_1, Q99767. The following applies: plain residues with an end cap or a label only.
APBA2_1, Q99767, sequence (Q99767 565-653): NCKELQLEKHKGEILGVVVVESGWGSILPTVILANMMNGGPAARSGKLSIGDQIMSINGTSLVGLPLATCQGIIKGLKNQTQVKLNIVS
In a further assay the target is T1, MPP6, Q9NZW5.
T1 sequence (Q9NZW5 125-219, limits assumed, looked up): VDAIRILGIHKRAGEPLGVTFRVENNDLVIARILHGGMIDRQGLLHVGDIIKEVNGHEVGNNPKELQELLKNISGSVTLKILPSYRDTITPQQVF
The following applies: plain residues with an end cap or a label only (N-terminal biotin on a linker: ado-ado).

Another assay concerns the target IL16_4, Q14005. The following applies: plain residues with an end cap or a label only (N-terminal biotin on a linker: ado-ado).
The next assay concerns the target GRASP, Q7Z6J2. The following applies: plain residues with an end cap or a label only (N-terminal biotin on a linker: ado-ado).
The target of another assay is T2, LIN7B, Q9HAP6.
T2 sequence (Q9HAP6 88-185, limits assumed, looked up): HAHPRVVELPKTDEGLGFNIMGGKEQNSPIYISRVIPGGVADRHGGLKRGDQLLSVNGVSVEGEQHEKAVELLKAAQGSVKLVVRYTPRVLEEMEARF
The following applies: plain residues with an end cap or a label only (N-terminal biotin on a linker: ado-ado).

Another assay deals with T3, NHERF3_1, Q5T2W1.
T3 sequence (Q5T2W1 4-100, limits assumed, looked up): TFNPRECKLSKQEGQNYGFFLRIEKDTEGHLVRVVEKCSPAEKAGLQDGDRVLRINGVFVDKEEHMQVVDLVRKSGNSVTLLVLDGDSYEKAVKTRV
As to conditions: plain residues with an end cap or a label only (N-terminal biotin on a linker: ado-ado).

The next assay addresses NHERF4_4, Q86UT5. The following applies: plain residues with an end cap or a label only (N-terminal biotin on a linker: ado-ado).
For another assay, the target named is DLG1_2, Q12959. As to conditions: plain residues with an end cap or a label only (N-terminal biotin on a linker: ado-ado).
DLG1_2, Q12959, sequence (Q12959 314-412): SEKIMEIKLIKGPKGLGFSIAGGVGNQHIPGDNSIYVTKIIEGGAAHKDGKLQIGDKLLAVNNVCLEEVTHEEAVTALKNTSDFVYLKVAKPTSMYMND
Another assay has as its target DLG2_3, Q15700. As to conditions: plain residues with an end cap or a label only (N-terminal biotin on a linker: ado-ado).
For the next assay, the target named is APBA1_1, Q02410. As to conditions: plain residues with an end cap or a label only.
APBA1_1, Q02410, sequence (Q02410 other isoform, or with tags, fused parts or gaps): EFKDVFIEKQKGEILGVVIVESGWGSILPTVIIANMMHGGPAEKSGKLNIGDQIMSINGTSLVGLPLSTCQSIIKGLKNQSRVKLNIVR
The target of another assay is FRMPD4, Q14CM0. As to conditions: plain residues with an end cap or a label only (N-terminal biotin on a linker: ado-ado).
FRMPD4, Q14CM0, sequence (Q14CM0 67-160): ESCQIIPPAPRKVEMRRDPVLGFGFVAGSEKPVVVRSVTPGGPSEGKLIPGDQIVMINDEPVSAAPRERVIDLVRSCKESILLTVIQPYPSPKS
A further assay concerns the target MAGI2_4, Q86UL8. As to conditions: plain residues with an end cap or a label only (N-terminal biotin on a linker: ado-ado).
Another assay has as its target NHERF4_2, Q86UT5. As to conditions: plain residues with an end cap or a label only (N-terminal biotin on a linker: ado-ado).
A further assay addresses PARD3_3, Q8TEW0. The following applies: plain residues with an end cap or a label only (N-terminal biotin on a linker: ado-ado).
Where [1] appears, read: modified: O-phospho-L-serine at S732 (position -3 from the C-terminal residue), O-phospho-L-threonine at T734 (position -1 from the C-terminal residue).
[2] abbreviates: plain residues with an end cap or a label only (N-terminal biotin on a linker: ado-ado).

MAGI2_2, Q86UL8, sequence (Q86UL8 410-522): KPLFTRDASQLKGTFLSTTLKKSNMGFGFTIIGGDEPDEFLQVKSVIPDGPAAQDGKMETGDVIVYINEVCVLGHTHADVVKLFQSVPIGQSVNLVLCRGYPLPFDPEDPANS
IL16_4, Q14005, sequence (Q14005 1229-1329): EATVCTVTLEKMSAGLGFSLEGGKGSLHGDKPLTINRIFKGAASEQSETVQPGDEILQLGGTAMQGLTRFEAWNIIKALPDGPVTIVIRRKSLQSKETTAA
GRASP, Q7Z6J2, sequence (Q7Z6J2 96-193): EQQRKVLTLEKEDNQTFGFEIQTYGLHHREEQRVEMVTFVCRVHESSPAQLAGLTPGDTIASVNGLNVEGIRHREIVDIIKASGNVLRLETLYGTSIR
PDZRN4_1, Q6ZMN7, sequence (Q6ZMN7 213-318): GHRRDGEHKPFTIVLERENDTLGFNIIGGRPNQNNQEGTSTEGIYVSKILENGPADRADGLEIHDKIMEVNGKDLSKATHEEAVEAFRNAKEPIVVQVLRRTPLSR
NHERF4_4, Q86UT5, sequence (Q86UT5 464-550): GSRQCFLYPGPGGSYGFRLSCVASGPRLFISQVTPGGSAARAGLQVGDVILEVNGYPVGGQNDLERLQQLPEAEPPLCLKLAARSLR
APBA1_2, Q02410, sequence (Q02410 742-822): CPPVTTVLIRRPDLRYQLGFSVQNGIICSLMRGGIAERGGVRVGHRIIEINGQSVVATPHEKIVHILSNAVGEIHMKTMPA
MAGI2_4, Q86UL8, sequence (Q86UL8 772-865): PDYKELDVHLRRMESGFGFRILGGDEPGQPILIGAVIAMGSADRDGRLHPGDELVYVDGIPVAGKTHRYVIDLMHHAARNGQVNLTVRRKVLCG
SNTG2, Q9NY99, sequence (Q9NY99 70-159): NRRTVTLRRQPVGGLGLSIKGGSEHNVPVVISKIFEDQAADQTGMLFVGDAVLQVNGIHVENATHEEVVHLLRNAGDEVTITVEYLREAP
ARHGEF12, Q9NZN5-2, sequence (Q9NZN5 other isoform, or with tags, fused parts or gaps): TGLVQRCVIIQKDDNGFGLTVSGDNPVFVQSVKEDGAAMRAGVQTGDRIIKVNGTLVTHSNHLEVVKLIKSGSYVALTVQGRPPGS
PARD3_3, Q8TEW0, sequence (Q8TEW0 582-685): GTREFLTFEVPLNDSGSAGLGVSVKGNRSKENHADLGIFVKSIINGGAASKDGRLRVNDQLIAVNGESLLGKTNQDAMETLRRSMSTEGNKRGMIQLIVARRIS
SCRIB_1, Q14160, sequence (Q14160 718-814): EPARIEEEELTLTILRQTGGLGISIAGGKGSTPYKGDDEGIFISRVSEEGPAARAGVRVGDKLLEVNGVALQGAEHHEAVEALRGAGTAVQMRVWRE
NHERF4_2, Q86UT5, sequence (Q86UT5 220-308): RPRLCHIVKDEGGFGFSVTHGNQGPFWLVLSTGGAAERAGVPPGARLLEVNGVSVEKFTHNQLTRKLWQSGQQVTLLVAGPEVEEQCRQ

Take RRSQSRESQC [a stretch of P03146, P03146]: the pKd result with AHNAK1, Q09666 is “below the threshold”.

Turning to RRSQSRESQC [a stretch of P03149, P03149], in the assay with APBA1_2, Q02410, the pKd result is “below the threshold”.

In the case of RVRKLPSTTL [a stretch of Q15418, Q15418], the pKd entry with MAST2, Q6P0Q8 (setting [1]) was “below the threshold”; with PARD3B_1, Q8TEW8 (modified: phosphorylated residue at S732 (position -3 from the C-terminal residue), phosphorylated residue at T733 (position -2 from the C-terminal residue), phosphorylated residue at T734 (position -1 from the C-terminal residue)), “below the threshold”; with PDZD7_3, Q9H5P4, “below the threshold”; in the assay with HTRA1, Q92743 it was “below the threshold”; with SNTG2, Q9NY99 it was “below the threshold”; with ARHGEF12, Q9NZN5-2 it was “below the threshold”. The pKd result in the assay with SCRIB_1, Q14160 is reported as “below the threshold”; in the assay with SNX27, Q96L92, “below the threshold”; in the assay with MAGI3_2, Q5TCQ9, “below the threshold”; with SCRIB_3, Q14160 (setting [1]) it was “below the threshold”; with SYNJ2BP, P57105 (setting [1]), “below the threshold”; in the assay with SNTA1, Q13424, “below the threshold”. For the same molecule, the pKd result in the assay with PDZRN4_1, Q6ZMN7 is “below the threshold”; with MAGI2_2, Q86UL8 (modified: O-phospho-L-threonine at T734 (position -1 from the C-terminal residue), phosphorylated residue at S732 (position -3 from the C-terminal residue)), “below the threshold”; in the assay with PTPN3, P26045, “below the threshold”; with SNTB1, Q13884 it was “below the threshold”.

On to RRSQSRESQC [a stretch of P69706, P69706], for which the pKd entry with APBA2_1, Q99767 is reported as “below the threshold”.

As for VKQYADVEGF [HNRNPK, P61978], the pKd in the assay with MAST2, Q6P0Q8 (setting [2]) was found to be 3.87; with MPP6, Q9NZW5 it was 3.7; with IL16_4, Q14005, 3.51; with GRASP, Q7Z6J2 it was 3.76; with LIN7B, Q9HAP6, 3.61; in the assay with NHERF3_1, Q5T2W1 it was 3.53. The pKd turned out to be 3.56 in the assay with MAGI2_2, Q86UL8 (setting [2]); 3.72 in the assay with NHERF4_4, Q86UT5; 3.72 in the assay with DLG1_2, Q12959; 3.55 with DLG2_3, Q15700.

Consider RRSQSRESQC [a stretch of P03148, P03148], for which, in the assay with APBA1_1, Q02410, the pKd result was “below the threshold”.

Regarding NTALVESEDL [PALLS, Q8WX93], the pKd with FRMPD4, Q14CM0 was found to be 3.65; in the assay with PARD3B_1, Q8TEW8 (setting [2]), 3.58; with IL16_4, Q14005 it was 3.57; with MAGI2_4, Q86UL8, 3.59; with NHERF4_2, Q86UT5, 3.48; in the assay with SCRIB_3, Q14160 (setting [2]), 3.73. The pKd in the assay with PARD3_3, Q8TEW0 is 3.61; with SYNJ2BP, P57105 (setting [2]) it was 3.49.
